Assay results reported in the DeepSol protein solubility set.

Assay: soluble on expression in E. coli; label from the status in PepcDB or PDB records

Sequence | soluble on expression in E. coli
MDEDVGLEATNYSRGDESRSEEQEKNVVRWRIVQQSTGPNPKPRHGHRAVVLKELIVIFGGGNEGMIDELHAYNTQKREWTAPQCCGDVPTPAAAFGAISLGNKIYRFGGMTEYGKYTNDLYELQSTRWEWRRLNPRVHSNGHLPCPRIGHSFVVSQKSQKAYVFGGLSNDLNDPKRNVPHYLDDLYVINLSGPQHLIWEKLNATGPGPISRESHTAVIYEKDSISRMVVYGGMNGVRLGDLWYLNLNTLHWTEIKFDDPRTGIPPMPRSLHSSVLIGDKMFVYGGWVPLLEHASTEQQTEKEWKCTSSLGCWNITEDRWVPLHLYCSDEDTIPRGRAGHCAAAVGDRMYIWSGRDGYRKAWSNQVCCRDMWLLDTILPEQPGKVQLGRAGFNSLEISWPIVQGASGYFLQIGFGDAKEQSVSPIKRATTSPRKQPSIVPPSQKETEQSPKKPQGTAPSIISTQGTTYTAPADPKPATDEGGLPQDLFEDTEKNETASPKRSNDAQSADSSTCEQKKTDESGLEEDSEKDQKPSDAGETDEMKEENGDDDLPWFDVGIIDKATINVTHYFNDRQQSLEKQLNDLIDHNAFKCVNDSVFTTEDKIPLINGQSYRFRVSAINGLGKGAWSETASCKTCVPGYPSAPSSIRITKSHEGAQLTWEPPSNTNISGKIIEYSVYLAVKNQSANSADSQLAFMRVYCGPQADCQVLQSNLGTAFVDQTNKPAIIFRIAARNEKGYGPATQVRWLQDQQKIPVRTNYPNNSGFIYQQHGGQQKRARFDHQ | not soluble
MDEFYISIETVGNNIVERYIDENGKERTREVEYLPTMFRHCKEESKYKDIYGKNCAPQKFPSMKDARDWMKRMEDIGLEALGMNDFKLAYISDTYGSEIVYDRKFVRVANCDIEVTGDKFPDPMKAEYEIDAITHYDSIDDRFYVFDLLNSMYGSVSKWDAKLAAKLDCEGGDEVPQEILDRVIYMPFDNERDMLMEYINLWEQKRPAIFTGWNIEGFDVPYIMNRVKMILGERSMKRFSPIGRVKSKLLQNMYGSKEIYSIDGVSILDYLDLYKKFAFTNLPSFSLESVAQHETKKGKLPYDGPINKLRETNHQRYISYNIIDVESVQAIDKIRGFIDLVLSMSYYAKMPFSGVMSPIKTWDAIIFNSLKGEHKVIPQQGSHVKQSF | soluble
MDEKLVKEVIFSFREVQRKTHHVLAEEAANREITTTQLLAIRELQKESDLTLGELAERMKLGKSTVSGIVDRLVKAGFLKRTRNESNRRALSLELTEKGATKAAETYHVFFNRLEPILEIGEERLKEMLEMHQEIITILEREGARD | not soluble
MDEMIFDPTMSKKKKKKKKPFMLDEEGDAQTEETQPSETKEVEPEPTEEKDVDADEEDSRKKDASDDLDDLNFFNQKKKKKKTKKIFDIDEAEEAIKDVKIESDAQEPAEPEDDLDIMLGNKKKKKKNVKFPEEDEILEKDEALEDEDSKKDDGISFSSQTAWAGSERDYTYEELLNRVFNIMREKNPDMVAGEKRKFVMKPPQVVRVGTKKTSFVNFTDICKLLHRQPKHLLAFLLAELGTSGSIDGNNQLVIKGRFQQKQIENVLRRYIKEYVTCHTCRSPDTILQKDTRLYFLQCETCHSRCSVASIKTGFQAVTGKRAQLRAKAN | soluble
MDESNVSQELLNSNRTEIARCVLLKDLVVMYGGYEVYANHVDLLMCFHQLMIVLAAPPIKPMQKEPGTLLPPRAVVYKLPAIKGSMKDAFSAHKLLKKSYAKPIVDISSTSGDSDPEWWSDRELTPDLNLKRELLLKKARFSRKTFDKRSSYIAHFKKSHLENYLNSDSDTVSNEKPKTLAQLKNFSKSNLVEYHPSMYRDVGVVIIFFSIYYYDLNSFKVNSEIEKQDKIFQEYKKWIFQSVQERRFVSKECTEPKVLSQLHVHVHQN | not soluble
MDESTCPIIEAIREVGKENDLLVIRLLSDNDLGFNQILKLAGKMSPKTLSVTLKRLTEKKIIYRDVVSTQPFRVKYRLTEKGQELRNVLNDLGQWGERWILNNESQSAVNTENYRLKS | not soluble
MDFAFEKVARDWFVRWSKGRSEKYAGQVMRNFERWVFPAIGNLDIRQVRTADVVGCLRVMEARGIVDTLRKTKNSLKMVFAFAVGSGMMEINPVAQIGSGVFERLEHHHHHH | not soluble
MDFASSDGGGRTTTSAKIVVAGGFGVGKTTFVGAVSEINPLRTEAVMTSASAGIDDLTHTGDKTTTTVAMDFGRITLDQDLILYLFGTPGQDRFWFMWDDLVRGAIGAVVLVDTRRLADCFPAVDYFENSGLPFVIALNGFDGHQPYNPEEVREALQIGPDAPIITTDARHRADAKSALITLVEHALMARLRLEHHHHHH | not soluble
MDFHIDEKYKGMGKGRTFLIKTYGCQMNAHDTEVMAGILNALGYSATSDINEADVILINTCAIRENAENKVFSEIGNLKHLKKERPDCLIGVCGCMSQEESVVNKILKSYQNVDMVFGLEHHHHHH | not soluble
MDFKSSDAIRGPRTEDHLPHTAQAAVKIVIVGGFGVGKTTMVGSVSEIRPLTTEETMTQMGIGVDDNYGSESKTATTVAMDFGRISITEQLVLYLFGTPGQERFWFLWNGLFEGALGAVVLIDTRRLEVSFDVIGRLEERGVPFVIAVNDFPDAPRYPVEDLRGALDLTEDIPIVKCDARRRASSREVLMTLMHFLHSLAVSKTSVLEHHHHHH | not soluble
MDFKYDVIVIGAGHAGCEAAAAAANLGSKTCLITMDMNKIGQMSCNPAVGGIAKGQIVREIDALGGQMGLVTDETAIQFRILNRSKGPAMWSPRAQCDRAKFIWSWREKLENTPNLHIWQDTVCELLVENGEVVGLVTLWGVTFKAKCIVLTAGTFLNGLMHVGRHQLPGGRMAEPASYQLTESIARHGIAYGRMKTGTPVRIDARSIHFDLMDTQDGECDFHKFSFMNTSTRHLKQLQCWTCYTNEEVHRILREGLPDSPLFNGQIQSIGPRYCPSIETKIVTFPDKEQHQLFLEPEGETTQELYLNGFSSSLPMDIQIAALKKVPAFKDIVIYRPGYAIEYDYFDPTQLKHSLESKIIKNLFFAGQVNGTTGYEEAGGQGLIAGINAHINCHGGEAFTLARDEAYIGVLIDDLVTKGVDEPYRMFTSRAEYRILLRMDDADMRLTERAYHLGLAREDRYQLMKTKKEALEQIVNFAKNYSMKPALINDALEKLGTTPLRQGCKLIEILNRPQITIENIAEHVPAFQRELEKATAADSDRKEEILEAAEILIKYQGYIDRERMIAEKLARLESIKIKGKFDYASIQSLSTEARQKLVKIDPETIAQASRIPGVSPSDINVLLVLSGR | not soluble
MDFLARATAIVGNTMVLMRRFGSPGTQAIGQSPAIPEAQKQGIMTLKMPAAKGWAPGHLPTPAPGLKVNAFARDLEHPRWIEVLPSGDVLVAEARQLPTPPKTLLDRAAQATMRRIRALGDSPNRITLLRDPDGRGEAQERETFLENQSQPFGMALVGDTFYVGNTDGIMAFPYRPGATRLEGPGRRLTTFKPGGHWTRSLIVSPDGRRIYAGVGSLSNIGDDGMEAEEGRAAIWELDLASGQARIYASGLRNPVGLAWEPTTRVLWTVVNERDGLGDETPPDYLTSVEEDGFYGWPYCYWNRIVDDRVPQDPAMVARAITPDYALGGHTASLGLCWVPAGTLPGFGDGMAIGQHGSWNRSKLSGYRLIFVPFANGRPSGPPRDILTGFLSDDEKLAYGRPVGVAVGPDRRSLLLADDVGDVIWRVTGALEHHHHHH | not soluble
MDFQIEEDRLGMRIQSETIELTKDEKGVVGISIGGGGPYCPCVYVVQVFDKSPAFKDGRIRCGDEIVAINGITVKGERKSAVAQLIQVSLNPVKITINKLEEANTKGKTLDILIKKVKHKVVEFVDQDSADALGLSRAILTNDPLAEKEKILEENAEFYRHLVAYFGDMFQYQQKISECQKEFGSIFCDLAAHEKQQTANEAFSSFGDKHRMIAKKQSESAVPLQKMVSDLQVYIDHVVPDTRLTIKKYLDVKYEYLSYCLKLKEMDDEEVEFVAIQEPLYRVETGNYEYRVMLRCRQECRARFMKMRDDVMVKIELLDQKHVRDIAQHLAIFAKTMAKCQQECAEILKERIDVPIEIDLEQLNLNMNTSDGKANGEEEMGQDAIVLNDNPLEGDLIDVNDIGSSTEFNEPRISLRRDSQNDTSQPLLGAPDSPLEELSLIDIS | not soluble
MDFYYPNLNNDMWRIVGLLFFGDKDHFLNDTRKAFCREQIIDFLNEKGIALFDTASSIRRLQDNASDKFLEVVQPTDIAALLRQLPECRAIVTTGQKATDTLRAQLEVEEPKVGDYAEFVFEGRAMRLYRMPSSSRAYPLALDKKAAAYRIMYQDLQMVILEHHHHHH | soluble
MDGDQVKGILKSGNNSAQFSLKAAKFDEVNILATFHPAGKDYGHMIIDEPKTPFVFEEDLPKELDTNALIEKLRHTSKSEMPAFGIEGDSEESSADEDFPESVEEKVRRMEFERRRKVHYKEFYSVPLARRLIADEFAELTSSEFNIHCEGGMESCEACSENNQLDGEASNLTQTKYSYSESQSEYRISDHSEPEPGFSPSHHCYQKLKAELFSKAEPEELASLTHLHRMPSVNDDEPSREPRVPYPSVVPTQTQNLHEHKSSLKITSEKPTPARICKSNPDNRPGTSKKETRLEHHHHHH | not soluble
MDHDKSKRLPPSYYTLLEASQEKETTSTKILAQYLDRSPATVRTQFQRIMEFLDVSSRYGALREAEKRGLIRRNKRATSAHHQENRSSL | not soluble
MDHTVLIALLLAFCSTASAVDSEGTDFVFAFVRNANPNITNQILSATVLNQNAQDCKFTLTYRPDYRKATSPENITVTVSANSAVEVPVLSWYGWNYANENLQDDVFLTLTGFSTCPVTVLANNYDNVTGQGDTYMVLPLTWGSTSLTFSLPPAVLSTDQQYEQIYVLPTTPGVTKVSVFEIGNAASVYTFNATFGNAPAAYIGARTPDARPRTYHVMSDKNVLVVAGVTCAGADANSCDHVAYMPHPPPSSDCYTYDYYDDDHVSYLPTTSQFFTDIPGTCSVGQNITRTLNDGVSYTITIKPQMESPLWSIKTTNANQLAVAFHNGGSNIHIARYYDGTKFNSRGAFAATSPSMTQFHNLNTPFFTRNANDTIEIYCTVLSCSSITIDGVKIQITDTKVVQKVDDISYYIFVNTIANPGYHQISLKQQGSYAFFVYGKNKLYSYGYEGGANKPTVVLAPPTTPGPTFYPVTTVSTMSPPTTVTVPTTPTPVPTTTNTPPANPTTATPTTVGTMTPSTGTTTVPVPTTTGSPTTQTTAPVTKPTVPSSTTQTAPPVTTPTSQPPVTTTSLLTTLTTPTVPVTTTVVPSSATVPTTPPTTVTVAATTTSKAPVVTTSPTLAPTSPTKLPTSPPSTVGTSPTAPANLTTPTTAPVNPTSSTTAPTAPVNPTSPTTAPTVPPVTTTTPTTTTSTTTTTTTTTTTTQTTPTTPVVTTPSTITPTTRPVTQPASQPATQPATTPTTTIPTTTQFSSAVSVALPVVLTMFFALF | not soluble
MDIGLEVENIPSVNITSLKEAPIHISSKIQPHGILLVLAEPDLKILQVTNNTLNVFGRSAEDMVQKRLVDLLDAYQLDRIKSGLSEQNLEFINPTKILVRNKGIA | not soluble
MDIHSHQQALDAYENVLEHLREKHIRITETRKAIISYMIQSTEHPSADKIYRDLQPNFPNMSLATVYNNLKVLVDEGFVSELKISNDLTTYYDFMGHQHVNVVCEICGKIADFMDVDVMDIAKEAHEQTGYKVTRIPVIAYGICPDCQAKDQPDF | not soluble
MDIPQDSYDLVVVGGGTSGVFAAISAARRGLRVALVEASGMLGGTLTQVTLGGICGAWTGTAHTQVVHGLFDEFVHAMRKAQACDGLYSYGHVTALPYEPVKVRYLLDQLLPPNVTAFFHSRLFAVDMEGERIARVHLAGVEGPFSLAARAYVDATGNASLVGLCATPLRRGENGTVQAASSMFRVIGADVDPRVRDVRTEIRLAIEKHNASGQAEAFKRSAVAVYVHPDQRLLHFNATRVYFESTADDALAAALDMSRVETEARKESFRLVELLKREVDGFANIEIVDLGSSVGVRDSRNIVNDHPLTEAMVRDGDKPANSVAYSAWPIEFHGSNTQTHWEPLEGDRYYGIPYESCLPQGIQNALVIGRAISSTPLAQASCRVTAPCIQMGESAGIAAHELVASSSRTAFSELASMKFILEHHHHHH | soluble
